Data taken from US20250101098A1 (R P SCHERER TECHNOLOGIES, published 2025).
Numbering of substitutions follows the chain as printed. In names and notes the source's numbering stands.

T1: recombinant human Nectin-4-His protein (human, UniProt Q96NY8 32-349)
T1 construct: Rescreening antigen and bought ELISA antigen are treated as one molecule; also called human Nectin-4-His tagged; Ag1; not shown: His tag
T1 sequence: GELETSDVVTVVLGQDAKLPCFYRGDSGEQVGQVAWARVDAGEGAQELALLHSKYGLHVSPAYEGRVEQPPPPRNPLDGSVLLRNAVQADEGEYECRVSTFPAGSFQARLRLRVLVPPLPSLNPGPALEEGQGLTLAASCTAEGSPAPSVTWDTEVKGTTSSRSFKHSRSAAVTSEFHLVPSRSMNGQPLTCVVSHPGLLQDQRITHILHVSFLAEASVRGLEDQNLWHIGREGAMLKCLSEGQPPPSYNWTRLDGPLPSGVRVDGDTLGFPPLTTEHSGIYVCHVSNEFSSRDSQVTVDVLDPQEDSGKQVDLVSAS

T2: human nectin-4 protein expressed on the surface of cells (human, UniProt Q96NY8 32-510)
T2 sequence: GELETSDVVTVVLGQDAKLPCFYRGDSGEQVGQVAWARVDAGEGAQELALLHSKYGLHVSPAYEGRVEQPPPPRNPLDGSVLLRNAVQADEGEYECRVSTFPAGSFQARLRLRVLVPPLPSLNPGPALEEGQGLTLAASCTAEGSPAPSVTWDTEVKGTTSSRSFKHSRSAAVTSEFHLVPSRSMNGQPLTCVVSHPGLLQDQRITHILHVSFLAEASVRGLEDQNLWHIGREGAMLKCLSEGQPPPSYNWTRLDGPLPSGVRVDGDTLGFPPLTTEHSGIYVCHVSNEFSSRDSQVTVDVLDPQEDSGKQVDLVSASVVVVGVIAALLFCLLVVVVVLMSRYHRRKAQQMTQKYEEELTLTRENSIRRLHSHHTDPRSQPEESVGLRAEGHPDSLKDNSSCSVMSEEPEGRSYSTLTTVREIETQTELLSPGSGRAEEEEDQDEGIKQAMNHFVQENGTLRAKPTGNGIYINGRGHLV

T3: cynomolgus Nectin-4 His tagged (cynomolgus, UniProt A0A2K5WES1 32-349)
T3 construct: also called Ag2
T3 sequence: T1 sequence with V39A, I230V

T4: cynomolgus monkey nectin-4 protein expressed on the surface of HEK 293 cells (cynomolgus monkey, UniProt A0A2K5WES1 32-510)
T4 construct: whole, on cells
T4 sequence: T2 sequence with V39A, I230V, A437T

B1: Nectin-4 5D9 VH5/VL3 (antibody, V domains shown)
VH: QVQLQESGPGLVKPSETLSLTCTVSGGSLTNYGVHWVRQPPGKGLEWIGVIWSGGSTNYNPSLKSRVTISRDTSKNQVSLKLSSVTAADTAVYYCARSGKWYYFDYWGQGTLVTVSS
VL: DIQMTQSPSSLSASVGDRVTITCRASQSIYSNLAWYQQKPGKAPKLLVYAATNLASGVPSRFSGSGSGTDFTLTISSLQPEDFATYYCQHFWGTPTFGGGTKVEIK
notes: Humanized; also called 5D9 VH variant 5 / 5D9 VL variant 3
B2: Nectin-4 5D9 VH5/VL1 (antibody, V domains shown)
VH: B1 VH
VL: DIQMTQSPASLSASVGDTVTITCRASQNIYSNLAWYQQKQGKSPQLLVYAATNLADGVPSRFSGSGSGTQYTLKINSLQSEDFGTYYCQHFWGTPTFGGGTKVEIK
notes: Humanized; also called 5D9 VH variant 5 / 5D9 VL variant 1
B3: Nectin-4 5D9 VH4/VL2 (antibody, V domains shown)
VH: B1 VH with E6Q, G27F, I48L, N58D, V67L, L80F, L82M
VL: B1 VL with R18T, S28N, P40Q, S56D, T74K, S76N
notes: Humanized; also called 5D9 VH variant 4 / 5D9 VL variant 2
B4: Nectin-4 5D9 VH2/VL4 (antibody, V domains shown)
VH: QVQLQESGPGLVKPSETLSLTCTVSGFSITNYGVHWIRQPPGKGLEWLGVIWSGGSTDYNASLVSRVTISRDTSKSQFFLKLNSVQADDTAVYYCARSGKWYYFDYWGQGTTVTVSS
VL: B1 VL with Q27E, S28N, S56D, F71Y
notes: Humanized; also called 5D9 VH variant 2 / 5D9 VL variant 4
B5: Nectin-4 5D9 VH4/VL4 (antibody, V domains shown)
VH: B1 VH with E6Q, G27F, I48L, N58D, V67L, L80F, L82M
VL: B1 VL with Q27E, S28N, S56D, F71Y
notes: Humanized; also called 5D9 VH variant 4 / 5D9 VL variant 4
B6: Nectin-4 5D9 VH3/VL1 (antibody, V domains shown)
VH: B1 VH with L29I, V37I, I48L, N58D, R71V, V78F
VL: B2 VL
notes: Humanized; also called 5D9 VH variant 3 / 5D9 VL variant 1
B7: Nectin-4 5D9 VH4/VL1 (antibody, V domains shown)
VH: B1 VH with E6Q, G27F, I48L, N58D, V67L, L80F, L82M
VL: B2 VL
notes: Humanized; also called 5D9 VH variant 4 / 5D9 VL variant 1; Nectin-4 VH4/VL1
B8: Nectin-4 5D9 VH5/VL4 (antibody, V domains shown)
VH: B1 VH
VL: B1 VL with Q27E, S28N, S56D, F71Y
notes: Humanized; also called 5D9 VH variant 5 / 5D9 VL variant 4
B9: Nectin-4 5D9 VH5/VL5 (antibody, V domains shown)
VH: B1 VH
VL: B1 VL with A55Q
notes: Humanized; also called 5D9 VH variant 5 / 5D9 VL variant 5
B10: Nectin-4 7H10H/7H10L (recombinant chimeric antibody) (antibody, V domains shown)
VH: QVQLQQPGAELVKPGASVKLSCKASGYTFTTYWMHWVKQRPGRGLEWIGGIDPYGAHIKYNEMFKTKATLTVDKPSSTAYMQLSSLTSEDSAVYYCARGDYSNWWWTYWGQGTLVTVSA
VL: DIVMTQSQKFMSTTVGDRVSITCKASQNVGTAVAWYQQIPGQSPKLLIYSASNRYTGVPDRFTGSGSGTDFTLTITNMQSEDLADYFCQHYSSYPWTFGGGTKLEIK
B11: Nectin-4 5D9H/5D9L (hybridoma supernatant) (antibody, V domains shown)
VH: QVQLKQSGPGLVQPSQSLSITCTVSGFSLTNYGVHWVRQSPGKGLEWLGVIWSGGSTDYNAAFVSRLSISRDNSKSQVFFKMNSLQADDTAIYYCARSGKWYYFDYWGQGTTLTVSS
VL: B2 VL with A13V, D17E, Q27E, T72S, T85S, V103L
notes: Mouse antibody in hybridoma supernatant
B12: Nectin-4 Hybridoma 6C8H/6C8L (hybridoma supernatant) (antibody, V domains shown)
VH: QVQLKQSGPGLVQPSQSLSITCTVSGFSLSTYGVHWVRQSPGKGLEWLGVIWSGGSTDYNAAFISRLTISKDNSKSQIFFKMNSLQADDTAIYYCARMMSWYFDVWGTGTTVTVSS
VL: DIVMTQSQKFMSTSVGDRVSVTCKASQNVVTNVAWYQQKPGQSPKALIYSASYRYSGVPDRFTGSGSGTDFTLTISNVQSEDLAEYFCQQYNSYPLTFGAGTKLELK
notes: as for B11
B13: Nectin-4 7 E8H/7 E8L (hybridoma supernatant) (antibody, V domains shown)
VH: B12 VH with S30A, T68S, I78V, M98N, M99S, S100H
VL: B12 VL with N77H, Q89H, S93N, L96Y, A100G, L106I
notes: as for B11
B14: Nectin-4 7H10H/7H10L (hybridoma supernatant) (antibody, V domains shown)
VH: B10 VH
VL: B10 VL
notes: as for B11
B15: Nectin-4 12E11H/12E11L (hybridoma supernatant) (antibody, V domains shown)
VH: B12 VH with S30T, Y59C, A61G, T68S, S70I, I78V, M99T, S100H
VL: B10 VL with G30N, I39K, N53Y, T76S, H90Q, S93N, W96L, G100A, I106L
notes: as for B11
B16: Nectin-4 3C12H/3C12L (hybridoma supernatant) (antibody, V domains shown)
VH: B12 VH with S30T, S56N, T68S, I78V, M99T, S100H
VL: B10 VL with G30V, I39K, T76S, N77Y, H90Q, W96L, G100A, I106L
notes: as for B11

Target: T1, recombinant human Nectin-4-His protein
Experiment: ELISA, coated antigen

EC50 [nM] | Binder
0.702 | B1
33.4 | B2
0.236 | B3
0.765 | B4
0.232 | B5
> 20 | B6
0.212 | B7
11.5 | B8
56.1 | B9

Target: T2, human nectin-4 protein expressed on the …
Experiment: cell-based or functional assay

IC50, in vitro potency, HEK Cells + Nectin-4 [nM] | Binder
0.549 | B10

Target: T2, human nectin-4 protein expressed on the …
Experiment: cell-based or functional assay
Remark: another data set of the same source

Binder | Cell kill IC50, HekNectin4 [nM] | Cell kill IC50, MDA-MB468 [nM] | Cell kill IC50, SKBR3 [nM]
B1 | 15.6 | 16.6 | 9.86
B2 | 30.3 | 19 | 13.3
B3 | 0.29 | 3.13 | 4.95
B4 | 17.8 | 27 | 18.5
B5 | 0.102 | 3.37 | 9.45
B6 | 73.3 | 41.6 | 46.9
B7 | 0.182 | 1.08 | 3.85
B8 | 22.1 | 11 | 9.53
B9 | 33.5 | 24 | 17.8

Target: T1, recombinant human Nectin-4-His protein
Experiment: ELISA, hybridoma supernatant

ELISA signal | Binder
3.08 | B11
3.16 | B12
3.11 | B13
3.26 | B14
3.21 | B15
3.2 | B16

Target: T3, cynomolgus Nectin-4 His tagged
Experiment: ELISA, hybridoma supernatant

ELISA signal | Binder
3.32 | B11
3.4 | B12
3.44 | B13
3.49 | B14
3.44 | B15
3.45 | B16

Target: T1, recombinant human Nectin-4-His protein
Experiment: ELISA, recombinant antibody on coated antigen

EC50 [nM] | Binder
0.21 | B10

Target: T2, human nectin-4 protein expressed on the …
Experiment: flow cytometry, HEK 293 cells overexpressing the target
Protocol: (§1) Human embryonic kidney (HEK) 293 cells overexpressing human, cynomolgus monkey, rat, or mouse nectin-4 protein were produced. Cells were lifted with Versene to preserve cell surface proteins and were resuspended at 10e6/mL in PBS+2% FBS. 100 μl was added to a flow tube to test […]. Primary antibodies were diluted to […] and 10 μL was added for a total of 1 μg/test. Primary antibodies (or ADCs) were incubated with cells for 1 h on ice. Then, cells were washed 1× in 2 mL PBS+2% FBS and secondary antibody was added for detection. AF488-conjugated anti-human antibody from Jackson Immunoresearch, diluted according to the manufacturer's instructions+50% glycerol, was used at 1 μL/test-diluted to ⅕ the concentration in PBS+2% FBS and 5 μL were added per tube. The secondary reagent was incubated with the cells for 30 min, then cells were washed 2× in PBS+2% FBS and analyzed by flow cytometry on a BD FacsCanto instrument equipped with FACSDiva software.
(§2) Lead clones were tested for binding to human, cynomolgus monkey, rat, or mouse nectin-4 protein expressed on the surface of HEK 293 cells. Enfortumab was included as a positive control and an anti-FITC reactive antibody was included as a negative control.

Flow data | Binder
12300 | B10

Target: T4, cynomolgus monkey nectin-4 protein …
Experiment: as above
Protocol: as §1, §2

Flow data | Binder
14100 | B10
